Key:
Assay in all cases: IEDB peptide-MHC binding, purified MHC/competitive/radioactivity; filed as Kd, often an IC50 or EC50 that approximates it; ≥ and ≤ were set here for values at or beyond the usual limits of such assays
[1] = target: HLA-A*02:02; details: source organism: Vaccinia virus WR
[2] = target: HLA-A*02:06; details: source organism: Vaccinia virus WR
[3] = target: HLA-A*02:03
[4] = target: HLA-A*68:01
[5] = target: HLA-A*31:01
[6] = target: HLA-A*11:01
[7] = target: HLA-A*33:01
[8] = target: HLA-A*03:01
[9] = source organism: Vaccinia virus WR
[10] = source organism: SARS coronavirus Tor2
[11] = source organism: Vaccinia virus Copenhagen
[12] = source organism: Lassa virus Josiah

With SICLDYIIV the Kd [1] was 1.46 µM, the Kd [2] was 0.689 µM and the Kd [3, 9] was 8.65 µM.
For SIHLTKTDKK, the Kd [4, 9] was 1.99 µM, the Kd [5, 9] was ≥ 21.8 µM and the Kd [6, 9] was 0.278 µM. The Kd [7, 9] was ≥ 70 µM and the Kd [8, 9] was 0.185 µM.
SISEINEWL gave a Kd [1] of 0.000129 µM, a Kd [2] of 0.00629 µM and a Kd [3, 9] of 0.00184 µM.
SLSVETITEK gave a Kd [4, 9] of 12.2 µM, a Kd [5, 9] of 1.25 µM and a Kd [6, 9] of 0.117 µM. The Kd [7, 9] was ≥ 70 µM and the Kd [8, 9] was 0.0332 µM.
Work on SQMLLIVLK yielded a Kd [4, 10] of 0.31 µM, a Kd [5, 10] of 0.35 µM and a Kd [6, 10] of 0.000503 µM. The Kd [7, 10] was 4.96 µM and the Kd [8, 10] was 0.204 µM.
SSLDQTHIK showed a Kd [4, 11] of 1.49 µM, a Kd [5, 11] of 0.026 µM and a Kd [6, 11] of 0.0318 µM. The Kd [7, 11] was 19.8 µM and the Kd [8, 11] was 0.961 µM.
With STNLCTHSFR the Kd [4, 10] was 0.00619 µM, the Kd [5, 10] was 0.000941 µM and the Kd [6, 10] was 0.0106 µM. It also gave a Kd [7, 10] of 0.00887 µM and a Kd [8, 10] of 0.297 µM.
In the case of STRTIILVGY, the Kd [4, 9] is reported as 0.1 µM, the Kd [5, 9] is reported as 0.339 µM and the Kd [6, 9] is reported as 0.221 µM. For the same sequence, the Kd [7, 9] was 8.02 µM and the Kd [8, 9] was 0.188 µM.
With STVDVRNIV the Kd [1] was 6.33 µM, the Kd [2] was 1.63 µM and the Kd [3, 9] was 3.48 µM.
Work on SVEDVSAFVR yielded a Kd [4, 9] of 0.0156 µM, a Kd [5, 9] of 0.656 µM and a Kd [6, 9] of 0.0368 µM. For the same sequence, the Kd [7, 9] was 2.12 µM and the Kd [8, 9] was ≥ 70.1 µM.
SVIRLLIWAY showed a Kd [4, 9] of 0.776 µM, a Kd [5, 9] of 2.24 µM and a Kd [6, 9] of 0.0173 µM. It also gave a Kd [7, 9] of 17.6 µM and a Kd [8, 9] of 1.38 µM.
With TAYIGTSNWT the Kd [1] was 1.77 µM, the Kd [2] was 0.22 µM and the Kd [3, 9] was 1.05 µM.
In the case of TFNSLNTDDY, the Kd [4, 9] is reported as 4.08 µM, the Kd [5, 9] is reported as ≥ 34.2 µM and the Kd [6, 9] is reported as 10.1 µM. For the same sequence, the Kd [7, 9] was ≥ 70 µM and the Kd [8, 9] was 5.44 µM.
TIDKSSPLYI was tested, and the Kd [1] was 0.387 µM, the Kd [2] was 1.82 µM and the Kd [3, 9] was 0.0123 µM.
In the case of TLNEYKQLYT, the Kd [1] is reported as 0.144 µM, the Kd [2] is reported as ≥ 69.8 µM and the Kd [3, 9] is reported as 0.773 µM.
TLTNTSIINH was tested, and the Kd [4, 12] was 13.1 µM, the Kd [5, 12] was ≥ 59.8 µM and the Kd [6, 12] was 15.4 µM. For the same sequence, the Kd [7, 12] was ≥ 70 µM and the Kd [8, 12] was 5.16 µM.
TMKAIEKDRL was tested, and the Kd [1] was 0.171 µM, the Kd [2] was ≥ 69.8 µM and the Kd [3, 9] was 1.06 µM.
Work on TQVLKTMSLY yielded a Kd [4, 10] of 10.3 µM, a Kd [5, 10] of 9.42 µM and a Kd [6, 10] of 2.67 µM. For the same sequence, the Kd [7, 10] was ≥ 27.6 µM and the Kd [8, 10] was 0.185 µM.
TTKDYFSFKK was tested, and the Kd [4, 9] was 0.000556 µM, the Kd [5, 9] was 0.0964 µM and the Kd [6, 9] was 0.00125 µM. It also gave a Kd [7, 9] of 1.33 µM and a Kd [8, 9] of 0.0313 µM.
TVPTNDHIPV gave a Kd [1] of 1.68 µM, a Kd [2] of 0.515 µM and a Kd [3, 9] of 1.89 µM.
In the case of TVYDDAARR, the Kd [4, 10] is reported as 0.00254 µM, the Kd [5, 10] is reported as 1.16 µM and the Kd [6, 10] is reported as 0.0971 µM. It also gave a Kd [7, 10] of 4.97 µM and a Kd [8, 10] of 0.455 µM.
With VASDVCKKNL the Kd [1] was ≥ 50.9 µM, the Kd [2] was ≥ 69.8 µM and the Kd [3, 9] was ≥ 70.4 µM.
Work on VIGLTTHCTK yielded a Kd [4, 9] of 0.0732 µM, a Kd [5, 9] of 0.761 µM and a Kd [6, 9] of 0.0459 µM. For the same sequence, the Kd [7, 9] was ≥ 35.3 µM and the Kd [8, 9] was 0.0154 µM.
With VLCNSQTSLR the Kd [4, 10] was 1.01 µM, the Kd [5, 10] was 0.0684 µM and the Kd [6, 10] was 1.86 µM. The Kd [7, 10] was 1.18 µM and the Kd [8, 10] was 0.435 µM.
Work on VLDRDGNFR yielded a Kd [4, 9] of 0.926 µM, a Kd [5, 9] of 0.159 µM and a Kd [6, 9] of 15.6 µM. For the same sequence, the Kd [7, 9] was 0.607 µM and the Kd [8, 9] was 3.33 µM.
VLTLATGPV was tested, and the Kd ([3]; source organism: Dengue virus 4 Philippines/H241/1956) was 0.0249 µM.
In the case of VSYEVFDDY, the Kd [4, 9] is reported as 1.57 µM, the Kd [5, 9] is reported as ≥ 77.9 µM and the Kd [6, 9] is reported as 0.134 µM. The Kd [7, 9] was 19.1 µM and the Kd [8, 9] was ≥ 37.1 µM.
For VTMMKYCSY, the Kd [4, 9] was 0.521 µM, the Kd [5, 9] was 0.46 µM and the Kd [6, 9] was 0.00878 µM. For the same sequence, the Kd [7, 9] was 2.06 µM and the Kd [8, 9] was 0.65 µM.
VTYVPSQER showed a Kd [4, 10] of 1.13 µM, a Kd [5, 10] of 0.0236 µM and a Kd [6, 10] of 0.883 µM. The Kd [7, 10] was 0.341 µM and the Kd [8, 10] was 3.27 µM.
Work on VVPDYGTYK yielded a Kd [4, 10] of 0.494 µM, a Kd [5, 10] of 2.72 µM and a Kd [6, 10] of 0.0844 µM. It also gave a Kd [7, 10] of 17.2 µM and a Kd [8, 10] of 0.309 µM.
WFLKSGAVVK was tested, and the Kd [4, 9] was 0.191 µM, the Kd [5, 9] was 7.63 µM and the Kd [6, 9] was 0.116 µM. For the same sequence, the Kd [7, 9] was 4.41 µM and the Kd [8, 9] was 0.011 µM.
With WLSSKGLACY the Kd [4, 9] was ≥ 28.3 µM, the Kd [5, 9] was 19.5 µM and the Kd [6, 9] was ≥ 28.9 µM. For the same sequence, the Kd [7, 9] was ≥ 58.6 µM and the Kd [8, 9] was 0.418 µM.
YFTFGDTALY was tested, and the Kd [4, 9] was 0.0499 µM, the Kd [5, 9] was ≥ 48 µM and the Kd [6, 9] was 6.4 µM. For the same sequence, the Kd [7, 9] was ≥ 45.3 µM and the Kd [8, 9] was 9.01 µM.
Work on YLRNYMVIK yielded a Kd [4, 9] of 1.67 µM, a Kd [5, 9] of 0.035 µM and a Kd [6, 9] of 0.897 µM. It also gave a Kd [7, 9] of 0.93 µM and a Kd [8, 9] of 0.00134 µM.
YVKNGTKGK was tested, and the Kd [4, 9] was 0.0393 µM, the Kd [5, 9] was ≥ 72.1 µM and the Kd [6, 9] was 0.875 µM. The Kd [7, 9] was ≥ 65.5 µM and the Kd [8, 9] was 2.08 µM.

— the Immune Epitope Database (IEDB)
